This passage reports relative binding affinity (IC50 ratio vs BV02) (IC50(BV02)/IC50) and IC50 results from publication PMC4028238.

The test system of the first data set is Influenza A virus hemagglutinin (whole virus as assayed) (Influenza A virus H3N2 A/Texas/1977 (A/Texas/1/77)). As to the kind of experiment: competition ELISA. The following applies: 5' PEG200, PBS, room temperature, […] (0.5-500 nM) […] (5 nM). In general terms: ELISA stands for enzyme-linked immunosorbent assay.
For the sequence “ATTAACCCTCACTAAAGGGCTGAGTCTCAAAACCGCAATACACTGGTTGTATGGTCGAATAAGTTAA [BV32]”, the relative binding affinity (IC50 ratio vs BV02) (IC50(BV02)/IC50) turned out to be 1.33.

The data set is the same for the next values; noted with them: * marks (phosphorothioate) after nt 1,2,3, 3' inverted dT, PBS, room temperature, […] (0.5-500 nM) […] (5 nM).
“ATTAACCCTCACTAAAGGGCTGAGTCTCAAAACCGCAATACACTGGTTGTATGGTCGAATAAGTTAA [BV29]”: the relative binding affinity (IC50 ratio vs BV02) (IC50(BV02)/IC50) amounted to 6.7.

Still in this data set, the particulars now being: * marks (phosphorothioate) after nt 1,2,3 and the last 3 linkages, PBS, room temperature, […] (0.5-500 nM) […] (5 nM).
With “ATTAACCCTCACTAAAGGGCTGAGTCTCAAAACCGCAATACACTGGTTGTATGGTCGAATAAGTTAA [BV28]”, the relative binding affinity (IC50 ratio vs BV02) (IC50(BV02)/IC50) was 1.36.

The same data set, now with this note: * marks (phosphorothioate): A*T*T*AACC*CTCACTAAAGGG*CTGAGTC*TCAAAACCG*CAATACACTG*GTTGTATG*GTCGAATAAGT*T*A*A, PBS, room temperature, […] (0.5-500 nM) […] (5 nM).
Take “ATTAACCCTCACTAAAGGGCTGAGTCTCAAAACCGCAATACACTGGTTGTATGGTCGAATAAGTTAA [BV31]”: the relative binding affinity (IC50 ratio vs BV02) (IC50(BV02)/IC50) stood at 7.51.

Staying with this data set, now noted: PBS, room temperature, […] (0.5-500 nM) […] (5 nM).
As to “AACGCTCACTCCCCCAAGAACCCCCCCCCCCTGACCCCCCCCCCCAGTGAGCGTT [BV45d]”, the relative binding affinity (IC50 ratio vs BV02) (IC50(BV02)/IC50) stood at 10.7.
Same read-out and setting: the same measure for “AATTAAGCCTGACTTAAGGGGTGAGTCTCAAAACCGCAATACACTCAGCCCTTTAGTGAGGGTTAATT [BV19j]”: 0.071; for “GTAAATACCTCTGAAATAATATCTCCATGACAGAGTAAGTCCATGAGAACTGACGATGCAAGTCTGTC [S3]”: 0.7; for “AAATAAGCCTGACTTAACGGGTGACTCTCAAAACCGCAATACACTCAGCCCTTTAGTGAGGGTTAATT [BV19k]”: 0.932.
Turning to “AATTAACCCTCACTAAAGGGCTGAGTCTCAAAACGTTTTGAGACTCAGCCCTTTAGTGAGGGTTAATT [BV11]”, the relative binding affinity (IC50 ratio vs BV02) (IC50(BV02)/IC50) came to 0.124.
The same measure, in the same setting: the same measure for “TCCTCAGTAAAGGGCTGAGTCAAAACCGCAATACACTGGTAAAAAGTGCGGTTAG [BV27i]”: 0.065; for “GTTTTGAGACTCAGCCCGGGCTGAGTCTCAAAACCGCAATACACTGGTTGTACAACCAGTGTATTGCG [BV13]”: 0.084; for “AACGCTCACTCCCCCCCCACCCCCCCCACCCCCCCCACCCCCCCCAGTGAGCGTT [BV35n]”: 7.23.
Same read-out and setting: the same measure for “AATTAACGCTCACTAAAGCCCCACCCACCCACCCACCCACCCACCCACCCCTTTAGTGAGCGTTAATT [BV36b]”: 0.611.
Turning to “AATTAACCCTCCTAAAGGGTCTGAGTCTCAAAACCGCAATACACTCAGCCCTTTAGTGAGGGTTAATT [BV19l]”, the relative binding affinity (IC50 ratio vs BV02) (IC50(BV02)/IC50) worked out at 0.004.
With GCTGAGTCTCAAAACCGCAATACACTGGTT [BV26], the relative binding affinity (IC50 ratio vs BV02) (IC50(BV02)/IC50) came to 0.792.
The same measure, in the same setting: next, “AACGCTCACTCCCCCAAGAACCCCCCCCCCCCTCCCCCCCCCCCCAGTGAGCGTT [BV45c]”: 11.7; “AACGCTCACTCCCCCACCCCCCCACCCCCCCACCCCCCCACCCCCAGTGAGCGTT [BV35m]”: 6.54.
Consider “GGTAGTTATAGTATATGGAAGGGGGTGTCGTATGG [C7-35M]”, for which the relative binding affinity (IC50 ratio vs BV02) (IC50(BV02)/IC50) came out at 0.549.
As to “CTCACTAAAGCGCTGAGTCCCCCCCCCCCCCCCCCCCACTCAGCGCTTTAGTGAG [BV35]”, the relative binding affinity (IC50 ratio vs BV02) (IC50(BV02)/IC50) turned out to be 1.01.
Still for that read-out and setting: the same measure for “AATTAACCCTCACTAAAGGGCTGAGTCTCAAAACCGCAATACACTGGTTGTACAACCAGTGTATTGCG [BV14]”: 1.33; for “AACGCTCACTACCCCCCCCCCAACCCCCCCCCCAACCCCCCCCCCAGTGAGCGTT [BV45b]”: 15.1; for “GAAATAACCTCTGATAAAAAATTTCTCCATAGCGAAGTAAGTCCATAAGGAATGCCGATTCGGCTTGC [S1]”: 1.1.
On the same count and under the same terms, next, “AATTAACCCTGACTAAAGGGGTGAGTCTCAAAACCGCAATACACTCAGCCCTTTAGTGAGGGTTAATT [BV19i]”: 0.071.
Same read-out and setting: the same measure for “TCCTCAGTAAAGGGCTGAGAAACCGCAATACACTGGTAAAAAGTGCGGTTAAGTT [BV27g]”: 0.093.
For CACCACCACCACCACCACCACCACCACCAC [BV24b], the relative binding affinity (IC50 ratio vs BV02) (IC50(BV02)/IC50) turned out to be 0.05.
On the same count and under the same terms, the same measure for “CTCACTAAAGGGCTGAGTCTCAAAACCGCAATACACTCAGCCCTTTAGTGAG [BV19g]”: 0.132.
Take “AACGCTCACTCCCCCCCCCCCACCCCCCCCCCCACCCCCCCCCCCAGTGAGCGTT [BV35o]”: the relative binding affinity (IC50 ratio vs BV02) (IC50(BV02)/IC50) was 9.92.
With “TCATTCTCAGTAAAGGGCTGAGTCAAACCGCAATACACTGGTAAAAAGTGCGGTTAGCGAG [BV27o]”, the relative binding affinity (IC50 ratio vs BV02) (IC50(BV02)/IC50) worked out at 0.116.
“AACGCTCACTCCCAAGAAGAAGAACCCCCCCCCCCCCCCCAGTGAGCGTT [BV43b]”: the relative binding affinity (IC50 ratio vs BV02) (IC50(BV02)/IC50) was 8.01.
Still for that read-out and setting: the same measure for “CTCACTAAAGGGCTGAGTCAAACCGCAATACACTGGTTGTATGGTCGAATAAGTT [BV27]”: 0.116.
On the same count and under the same terms, the same measure for “AACCCTCACTCCGACTCACTCAAAACCGCAATACACTCAGCCAGTGAGGGTT [BV19f]”: 0.131; for “TCATTCTCAGTAAAGGGCTGAGAATTCAAACCGCAATACACTGGTAAAAAGTGCGGTTAAG [BV27p]”: 0.133; for “GTCACTAAAGGGCTGAGTCAAACCGCCATACACTGGTTGTATGGCGGTTAAGTT [BV27j]”: 0.089.
Still for that read-out and setting: the same measure for “AACGCTCACTCCCCCCCCCCCCCCCAAGAACCCCCCCCCCCCCCCAGTGAGCGTT [BV35s]”: 7.45; for “TCCTCAGCAAAATAGCGGGGCTGAGTCAAACCGCAATACACTGGTAAAAAGTGCGGTTAAG [BV37b]”: 1; for “GGCTCACTAAAGGGCTGAGTCTCAAAACCGCAATACACTCAGCCCTTTAGTGAGGGTTAATTTTAAAGG [BV19c]”: 0.086.
For the sequence “AATTAACCCTCACTAAAGGGCTGAGTCTCAAAACCGCAATACACTCAGCCCTTTAGTGAGGGTTAATT [BV19]”, the relative binding affinity (IC50 ratio vs BV02) (IC50(BV02)/IC50) is 1.34.
The same measure, in the same setting: the same measure for “TCCTCAGTAAAGGGCTGAGTCAAACCGCAATACACTGGTAAAAAGTGCGGTTAAG [BV27h]”: 0.092.
Still for that read-out and setting: next, “AACCCTCACTCTCAAAACCGCAATACAGTGAGGGTT [BV19h]”: 0.016; “AATTAACCCTCACTAAAGGGCTCTCACTCAAAACCGCAATACACTCAGCCCTTTAGTGAGGGTTAATT [BV19a]”: 0.574; “AACGCTCACTCCCCCCCCCCCCCCAAGAAGAACCCCCCCCCCCCCAGTGAGCGTT [BV42b]”: 14.9.
Same read-out and setting: the same measure for “GGCTGAGTCAAACCGCCTAACACTGGTACAATGGCGGTTAAGTT [BV27m]”: 0.012; for “CCCCCCCCCCCCCCCCCGCGCTGAGTCCCCCCCCCCCCCCCCCCCACTCAGCGCG [BV35c]”: 1.16; for “AATTAACCCTCACTAAAGGGCTGATGCGGAATAAGTTAAAACCGCAGGTATACACTGGTTGTATCGAA [BV02a]”: 0.946.
The term IC50 denotes the concentration that gives 50% inhibition. Regarding “AATTAACCCTCACTAAAGGGCTGAGTCTCAAAACCGCAATACACTGGTTGTATGGTCGAATAAGTTAA [BV02]”, the half-inhibitory concentration (IC50) was 0.055 µM and the relative binding affinity (IC50 ratio vs BV02) (IC50(BV02)/IC50) came to 1.
On to CTCCTCCTCCTCCTCCTCCTCCTCCTCCTC [BV24a], for which the relative binding affinity (IC50 ratio vs BV02) (IC50(BV02)/IC50) was 0.08.
Consider “GTCACTAAAGGGCTGAGTCAAACCGCAATACACTGGTTGTATGGTCGGTTAAGTT [BV27f]”, for which the relative binding affinity (IC50 ratio vs BV02) (IC50(BV02)/IC50) is 0.75.
Same read-out and setting: the same measure for “AACGCTCACTCCCCCCCCCCCCCCCCCCCAGTGAGCGTT [BV35g]”: 0.639.
Same read-out and setting: the same measure for “CTCACTAAAGGGCTGAGTCAAACCGCAATACACTGGTTGTATGGTCGGTTAAGTT [BV27c]”: 0.771.
On the same count and under the same terms, the same measure for “AACGCTCACTCCCCCAAGAACCCCCCCCCCATGCACCCCCCCCCCAGTGAGCGTT [BV45e]”: 11.4; for “AGATAAATGTCCGGGTTCGCTTCACTGATCAAACATAGACAGGTATAATTACTGCCTGAAGAAAATCC [S2]”: 1.
Consider “AATTAACCCTCACTAAAGCCGACTCACTCAAAACCGCAATACACTCAGCCCTTTAGTGAGGGTTAATT [BV19b]”, for which the relative binding affinity (IC50 ratio vs BV02) (IC50(BV02)/IC50) worked out at 1.26.
Still for that read-out and setting: the same measure for “TCCTCAGTAAAATAGCGGGGCTGAGTCAAACCGCAATACACTGGTAAAAAGTGCGGTTAAG [BV27n]”: 0.151.
On the same count and under the same terms, the same measure for “AACGCTCACTAACCCCCCCCCCACCCCCCCCCCACCCCCCCCCCAAGTGAGCGTT [BV45]”: 14.2; for “AATTAACCCTCACTAAAGGGCTGAGTCTCAAAACCGCAATACACTGGTTGTATGTTAATTGGGAGTGA [BV18]”: 7.26.
In the case of “GGTAGTTATAGTATATGGAAGGGGCCCCCCCCCCCCCCCCGTGTCGTATGG [C7C]”, the relative binding affinity (IC50 ratio vs BV02) (IC50(BV02)/IC50) stood at 15.5.
For “TCCTCAGCAAAATAGCGGGGCTGAGTCTCAAACCGCAATACACTGGTAAAAAGTGCGGTTA [BV37c]”, the relative binding affinity (IC50 ratio vs BV02) (IC50(BV02)/IC50) is 7.56.
The same measure, in the same setting: next, “TCTCAGCCCCCGCTGAGTCAAAGCGCACCCCCCCCCCCCCCCCCCCTGCGCTTAA [BV37f]”: 0.495; “AACGCTCACTCCCCCCCCCCCCCCCCCACCCCCCCCCCCCCCCCCAGTGAGCGTT [BV35p]”: 9.88.
On the same count and under the same terms, the same measure for “AACGCTCACTAAACCCCCCCCCACCCCCCCCCACCCCCCCCCAAAAGTGAGCGTT [BV45a]”: 12.6.
